Earlier results as cited in article doi:10.1101/2025.04.17.649309.

Target: Cys12 (UniProt position 12, YTKETCPYCHR)

Glutaredoxin 3 (Grx3) (Escherichia coli)
pKa: 4.1
